Experimental data taken from publication PMC5555656 (Molecular Biology of the Cell, 2017).

Target: T1, hexahistidine (his6)-tagged Qc-SNARE Vam7 (yeast, UniProt P32912 1-316)
T1 sequence (looked up): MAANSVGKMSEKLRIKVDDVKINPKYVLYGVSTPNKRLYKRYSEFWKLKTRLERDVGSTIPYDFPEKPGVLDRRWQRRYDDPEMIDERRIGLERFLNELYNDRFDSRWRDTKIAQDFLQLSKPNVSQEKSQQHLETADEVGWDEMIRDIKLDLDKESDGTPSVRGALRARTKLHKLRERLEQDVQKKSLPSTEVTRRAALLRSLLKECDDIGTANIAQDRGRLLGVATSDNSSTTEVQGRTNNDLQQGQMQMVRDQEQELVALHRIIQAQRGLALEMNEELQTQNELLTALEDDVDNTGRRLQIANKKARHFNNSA
Experiment: pull-down

B1: yeast vacuolar R-SNARE Nyv1, membrane-anchored (natural protein, UniProt Q12255 1-253, looked up)
chain: MKRFNVSYVEVIKNGETISSCFQPFQKNENYGTITSANEQITPVIFHNLIMDMVLPKVVPIKGNKVTKMSMNLIDGFDCFYSTDDHDPKTVYVCFTLVDMPKILPIRILSGLQEYESNATNELLSSHVGQILDSFHEELVEYRNQTLNSSGNGQSSNGNGQNTISDIGDATEDQIKDVIQIMNDNIDKFLERQERVSLLVDKTSQLNSSSNKFRRKAVNIKEIMWWQKVKNITLLTFTIILFVSAAFMFFYLW
binding result: binds
